Measurements as given in the supplement of paper PMC7877785.
± gives the uncertainty stated by the source.

Assay: self-splicing fitness, log relative to wild type (ln ratio); higher = more splicing; Tetrahymena group I intron in knt gene, E. coli kanamycin selection, DiMSum; sequences stand for … in CUCUCU…GGAGGGAAAAGUUAUCAGGCAUGCACCUGGUAGCUAGUCUUUAAACCAAUAGAUUGCAUCGGUUUAAAAGGCAAGACCGUCAAAUUGCGGGAAAGGGGUCAACAGCCGUUCAGUACCAAGUCUCAGGGGAAACUUUGAGAUGGCCUUGCAAAGGGUAUGGUAAUAAGCUGACGGACAUGGUCCUAACCACGCAGCCAAGUCCUAAGUCAACAGAUCUUCUGUUGAUAUGGAUGCAGUUCACAGACUAAAUGUCGGUCGGGGAAGAUGUAUUCUUCUCAUAAGAUAUAGUCGGACCUCUCCUUAAUGGGAGCUAGCGGAUGAAGUGAUGCAACACUGGAGCCGCUGGGAACUAAUUUGUAUGCGAAAGUAUAUUGAUUAGUUUUGGAGUACUCGUGGUCG
In short: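 A randomised library covering all eight P1ex-region intron nucleotides was built with the intron in the knt kanamycin-resistance gene on pET-22b(+) and held in E. coli BL21(DE3). Cells were grown overnight at 37°C or 30°C on LB agar, with or without 25 μg/mL kanamycin, plus 100 μg/mL carbenicillin, 50 μM IPTG and 0.2% rhamnose, and pooled colonies were amplicon-sequenced on an Illumina HiSeq 2500. DiMSum fitness is the error-weighted combination of wild-type-normalised replicate fold changes, kanamycin versus none.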

Sequence	self-splicing fitness (ln) (37 °C)	self-splicing fitness (ln) (30 °C)
GACGAGCAAUAUUACGGCCA	0.241 ± 0.29	–
CCACAGCAAUAUUACGAGCG	0.184 ± 0.065	-0.707 ± 0.048
UGGUAGCAAUAUUACGCUUC	-0.643 ± 0.35	-2.63 ± 0.29
GACCAGCAAUAUUACGCACC	-1.06 ± 0.11	-0.0772 ± 0.089
GACGAGCAAUAUUACGUAUU	-2.44 ± 0.18	-3.7 ± 0.21
ACGGAGCAAUAUUACGUAAA	-1.27 ± 0.35	–
UCGCAGCAAUAUUACGGAGC	-1.89 ± 0.26	-3.54 ± 0.35
UUAUAGCAAUAUUACGAGAA	-1.51 ± 0.38	–
UAGCAGCAAUAUUACGGGGA	-1.73 ± 0.12	-2.85 ± 0.2
UCCGAGCAAUAUUACGGCGC	-3.02 ± 0.37	–
UCGCAGCAAUAUUACGUCCG	-0.0675 ± 0.1	-0.808 ± 0.078
AUCGAGCAAUAUUACGUCGG	-1.42 ± 0.16	-2 ± 0.13
UUGGAGCAAUAUUACGAGGC	–	-3.52 ± 0.4
GUGGAGCAAUAUUACGAAAC	-2.23 ± 0.3	–
UCAAAGCAAUAUUACGUGAU	-2.64 ± 0.21	-3.95 ± 0.17
GACGAGCAAUAUUACGGUCC	-1.74 ± 0.23	-3.83 ± 0.25
CACCAGCAAUAUUACGACGG	0.0217 ± 0.091	-0.253 ± 0.078
GACUAGCAAUAUUACGGGGU	-2.91 ± 0.15	-4.18 ± 0.17
GUAGAGCAAUAUUACGUCGC	-0.21 ± 0.18	-0.635 ± 0.15
CAUUAGCAAUAUUACGGGCA	-1.1 ± 0.16	-2.73 ± 0.27
GGAUAGCAAUAUUACGGUUA	0.0186 ± 0.17	-0.755 ± 0.2
AGUAAGCAAUAUUACGAGUG	-3.04 ± 0.43	-3.01 ± 0.27
CAUUAGCAAUAUUACGUGGU	-2.6 ± 0.16	-4.46 ± 0.21
AGUGAGCAAUAUUACGAUGA	-2.24 ± 0.3	-4.11 ± 0.39
UGAAAGCAAUAUUACGGUCU	-0.209 ± 0.085	-0.0503 ± 0.077

Sequence	self-splicing fitness (ln) (37 °C)	self-splicing fitness (ln) (30 °C)
CUGAAGCAAUAUUACGUGGA	-2.63 ± 0.27	-4.08 ± 0.3
CGGGAGCAAUAUUACGACGG	-0.65 ± 0.42	-1.4 ± 0.23
CCUUAGCAAUAUUACGCCUU	-2.57 ± 0.24	-3.52 ± 0.32
CUGGAGCAAUAUUACGGUAG	-0.514 ± 0.16	-2.51 ± 0.22
AGGUAGCAAUAUUACGAUGC	-0.828 ± 0.035	-1.62 ± 0.017
CCUAAGCAAUAUUACGACGG	-2.24 ± 0.24	-3.49 ± 0.19
CUAUAGCAAUAUUACGAACA	-2.49 ± 0.2	-2.76 ± 0.19
CUAAAGCAAUAUUACGAAAU	-2.01 ± 0.46	-3.55 ± 0.28
CGCCAGCAAUAUUACGAUCG	-0.476 ± 0.092	-0.715 ± 0.063
AUGGAGCAAUAUUACGAAAA	-0.761 ± 0.38	–
GCACAGCAAUAUUACGACAU	-0.217 ± 0.032	-0.894 ± 0.011
CAGGAGCAAUAUUACGCGCC	-2.5 ± 0.26	–
UUUAAGCAAUAUUACGAGAU	-0.782 ± 0.16	-3.92 ± 0.26
UUCCAGCAAUAUUACGGGCC	-2.34 ± 0.33	-3.91 ± 0.3
AGUUAGCAAUAUUACGAUAC	-1.51 ± 0.24	-2.6 ± 0.25
CAAAAGCAAUAUUACGCCAG	-1.32 ± 0.09	-0.849 ± 0.075
GCGAAGCAAUAUUACGCUUU	-2.03 ± 0.4	-2.27 ± 0.19
UUCCAGCAAUAUUACGCUUA	-0.175 ± 0.077	-0.131 ± 0.066
AGUUAGCAAUAUUACGAGCU	-0.796 ± 0.17	-1.97 ± 0.15
CCGUAGCAAUAUUACGCCUA	-2.11 ± 0.27	-3.02 ± 0.34
GCUUAGCAAUAUUACGCUCC	-1.09 ± 0.26	-0.928 ± 0.15
GCCUAGCAAUAUUACGGUUG	-1.62 ± 0.11	-3.8 ± 0.14
CCAGAGCAAUAUUACGAGGG	-2.39 ± 0.41	-4.31 ± 0.39
CGAUAGCAAUAUUACGACCU	0.288 ± 0.14	-1.35 ± 0.12
GAAGAGCAAUAUUACGACAG	-2.76 ± 0.28	-3.36 ± 0.29

Sequence	self-splicing fitness (ln) (37 °C)	self-splicing fitness (ln) (30 °C)
CAAUAGCAAUAUUACGACUG	-0.0987 ± 0.081	-0.326 ± 0.063
AUGUAGCAAUAUUACGAACU	0.131 ± 0.15	-0.642 ± 0.12
CGCGAGCAAUAUUACGAGCC	-1.4 ± 0.28	-3.49 ± 0.32
UCGCAGCAAUAUUACGCCUG	-1.28 ± 0.2	-3.14 ± 0.23
ACAAAGCAAUAUUACGCAGG	-1.21 ± 0.08	-1.47 ± 0.064
UAUGAGCAAUAUUACGUUUA	-1.94 ± 0.14	-2.59 ± 0.24
UUGCAGCAAUAUUACGCGCG	-1.29 ± 0.14	-1.88 ± 0.12
GGGGAGCAAUAUUACGCUGA	-2.33 ± 0.2	-3.2 ± 0.16
GGACAGCAAUAUUACGCUCU	–	-2.19 ± 0.25
CGUGAGCAAUAUUACGGGGC	-2.03 ± 0.2	-3.54 ± 0.28
UAUCAGCAAUAUUACGGGCA	0.193 ± 0.084	-0.0174 ± 0.066
CCCGAGCAAUAUUACGUUCC	–	-2.86 ± 0.4
UAGAAGCAAUAUUACGAGAG	-1.46 ± 0.34	-3.63 ± 0.28
GCGCAGCAAUAUUACGUAGU	0.18 ± 0.076	-0.438 ± 0.06
UUACAGCAAUAUUACGGAAG	-2.05 ± 0.14	-3 ± 0.13
ACGCAGCAAUAUUACGCAUU	-1.89 ± 0.12	-3.81 ± 0.19
UUUCAGCAAUAUUACGGCCG	-0.968 ± 0.26	-0.936 ± 0.17
AAUAAGCAAUAUUACGCGUA	-0.929 ± 0.13	-1.25 ± 0.14
UACCAGCAAUAUUACGUUAU	-2.26 ± 0.14	-2.97 ± 0.12
CUUAAGCAAUAUUACGUCCG	0.679 ± 0.19	-0.258 ± 0.11
AAGAAGCAAUAUUACGCACG	-0.749 ± 0.12	-1.26 ± 0.082
UGGCAGCAAUAUUACGCGGU	-2.62 ± 0.31	-2.54 ± 0.16
CUUUAGCAAUAUUACGUAGC	-1.6 ± 0.49	–
GUCCAGCAAUAUUACGUUGC	-0.538 ± 0.16	-2.05 ± 0.13
UCUAAGCAAUAUUACGAGAA	-1.69 ± 0.39	-3.17 ± 0.5

Sequence	self-splicing fitness (ln) (37 °C)	self-splicing fitness (ln) (30 °C)
GACCAGCAAUAUUACGGUUG	-0.341 ± 0.062	-0.661 ± 0.053
CCGAAGCAAUAUUACGAUUC	-2.07 ± 0.25	–
GGUUAGCAAUAUUACGGCUU	1.05 ± 0.096	-0.26 ± 0.082
UUCAAGCAAUAUUACGAAAU	-1.43 ± 0.19	-3.5 ± 0.25
UAAUAGCAAUAUUACGGUCU	-2.49 ± 0.16	-2.75 ± 0.16
GCCCAGCAAUAUUACGCUUG	-1.79 ± 0.17	-3.45 ± 0.2
GCGUAGCAAUAUUACGAGGU	-2.62 ± 0.36	-2.81 ± 0.36
CAUAAGCAAUAUUACGAGGU	-2.6 ± 0.18	-2.81 ± 0.16
UCUAAGCAAUAUUACGUAAU	-1.66 ± 0.19	-3.41 ± 0.2
GCGAAGCAAUAUUACGCCAU	-2.48 ± 0.36	–
UACCAGCAAUAUUACGUGCG	-0.367 ± 0.061	-0.811 ± 0.044
UAAAAGCAAUAUUACGCAAA	-0.788 ± 0.18	-3.71 ± 0.4
CAUGAGCAAUAUUACGCCUC	-1.75 ± 0.42	–
CAGAAGCAAUAUUACGUGCG	0.0457 ± 0.099	-0.578 ± 0.07
AAAGAGCAAUAUUACGGGGC	-2.79 ± 0.36	-4.4 ± 0.42
CCCCAGCAAUAUUACGUCUC	-3.61 ± 0.19	-3.78 ± 0.16
AUCCAGCAAUAUUACGUUCG	-0.92 ± 0.12	-2.47 ± 0.1
AGGUAGCAAUAUUACGGAUA	-1.6 ± 0.036	-2.53 ± 0.025
CAGAAGCAAUAUUACGGCCA	-1.83 ± 0.21	-1.5 ± 0.26
CGGCAGCAAUAUUACGGUUG	-1.11 ± 0.12	-2.93 ± 0.14
CUGGAGCAAUAUUACGGGCU	-2.46 ± 0.49	-3.05 ± 0.37
ACUAAGCAAUAUUACGGAAA	-1.7 ± 0.23	-2.78 ± 0.37
AAACAGCAAUAUUACGUCUG	-1.17 ± 0.095	-2.28 ± 0.084
AGGGAGCAAUAUUACGUUCG	-1.96 ± 0.23	-3.18 ± 0.22
